Laboratory results: US20230279089A1 (GlaxoSmithKline, published 2023)

How the values were obtained:
Human BMP1-1 = target: T1, Human BMP1-1 (human, UniProt P13497-2 121-730, limits assumed); assay: cell-based or functional assay
T1 sequence (looked up): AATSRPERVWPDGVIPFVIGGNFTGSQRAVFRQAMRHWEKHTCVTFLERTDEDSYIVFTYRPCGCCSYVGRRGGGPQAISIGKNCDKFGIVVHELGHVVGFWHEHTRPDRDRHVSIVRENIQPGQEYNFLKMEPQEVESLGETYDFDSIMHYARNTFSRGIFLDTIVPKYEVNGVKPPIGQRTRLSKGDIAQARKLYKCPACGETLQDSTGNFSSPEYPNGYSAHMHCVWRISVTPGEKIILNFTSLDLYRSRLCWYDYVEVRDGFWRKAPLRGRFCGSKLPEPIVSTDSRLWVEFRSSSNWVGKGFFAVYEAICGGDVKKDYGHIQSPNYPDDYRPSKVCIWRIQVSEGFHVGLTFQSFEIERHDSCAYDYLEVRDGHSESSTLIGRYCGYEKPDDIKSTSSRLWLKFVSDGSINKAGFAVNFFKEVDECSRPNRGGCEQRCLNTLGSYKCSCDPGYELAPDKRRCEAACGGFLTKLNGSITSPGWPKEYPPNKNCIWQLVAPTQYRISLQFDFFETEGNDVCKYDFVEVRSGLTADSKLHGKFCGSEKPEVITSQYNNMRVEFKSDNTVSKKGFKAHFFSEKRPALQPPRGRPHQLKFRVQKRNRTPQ

Human TLL1 = target: T2, Human TLL1 (human, UniProt O43897 148-1013, limits assumed); assay: cell-based or functional assay
T2 sequence (looked up): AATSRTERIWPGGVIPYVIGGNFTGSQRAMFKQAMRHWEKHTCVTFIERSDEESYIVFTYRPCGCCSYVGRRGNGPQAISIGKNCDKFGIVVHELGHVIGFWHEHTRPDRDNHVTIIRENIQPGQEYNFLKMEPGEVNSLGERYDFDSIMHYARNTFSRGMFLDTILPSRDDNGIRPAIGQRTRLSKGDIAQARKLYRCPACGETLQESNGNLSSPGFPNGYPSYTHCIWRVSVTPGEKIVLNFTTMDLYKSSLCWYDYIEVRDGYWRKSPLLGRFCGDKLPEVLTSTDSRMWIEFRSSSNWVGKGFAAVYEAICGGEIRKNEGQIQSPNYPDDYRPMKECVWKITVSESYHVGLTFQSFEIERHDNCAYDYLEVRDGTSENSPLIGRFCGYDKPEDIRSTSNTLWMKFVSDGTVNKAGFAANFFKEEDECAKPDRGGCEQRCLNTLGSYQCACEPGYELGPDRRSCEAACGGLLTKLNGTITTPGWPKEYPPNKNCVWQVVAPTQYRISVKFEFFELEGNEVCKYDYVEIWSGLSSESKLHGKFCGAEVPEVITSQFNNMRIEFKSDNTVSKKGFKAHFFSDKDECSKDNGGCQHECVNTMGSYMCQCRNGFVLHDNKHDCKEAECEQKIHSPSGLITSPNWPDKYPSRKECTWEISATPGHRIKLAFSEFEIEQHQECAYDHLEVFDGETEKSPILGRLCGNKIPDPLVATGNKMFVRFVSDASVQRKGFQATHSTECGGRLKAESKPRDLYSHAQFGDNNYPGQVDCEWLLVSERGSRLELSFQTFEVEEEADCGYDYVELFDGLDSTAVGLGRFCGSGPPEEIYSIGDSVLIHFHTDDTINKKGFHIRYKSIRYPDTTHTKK

[1] = target: T3, Human BMP1 CD+CUB1 truncated antigen (human, UniProt P13497 121-434, limits assumed); assay: SPR, mAb captured on protein A, HBS-EP
T3 construct: domain: CD+CUB1
T3 sequence (looked up): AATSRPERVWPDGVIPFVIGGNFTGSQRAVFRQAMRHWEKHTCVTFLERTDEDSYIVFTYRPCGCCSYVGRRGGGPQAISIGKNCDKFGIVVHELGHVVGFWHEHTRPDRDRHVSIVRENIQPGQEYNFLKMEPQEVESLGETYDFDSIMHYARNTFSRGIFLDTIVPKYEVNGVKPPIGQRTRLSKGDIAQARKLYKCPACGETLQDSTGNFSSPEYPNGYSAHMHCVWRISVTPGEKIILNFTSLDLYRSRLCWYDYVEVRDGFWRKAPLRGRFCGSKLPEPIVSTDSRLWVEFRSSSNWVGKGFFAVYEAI
Protocol: The 16 lead panel antibodies expressed in HEK cells were evaluated for binding to a truncated version of human BMP containing the catalytic domain and truncated domain (Human BMP1 CD+CUB1 truncated antigen) by SPR using BIACORE T200. HBS-EP+ buffer was used and the experiment run at 25° C. Protein A was immobilised to a CM5 sensor chip via amine coupling. The lead panel antibodies were captured onto protein A surface. Human BMP1 CD+CUB1 was then passed over the captured antibodies at various concentrations.

B1: 13Y039-4B06-4376 (antibody, human IgG1, kappa, V domains shown)
VH: QVQLVQSGAEVKKPGASVKVSCKASGYTFMGYYMNWVRQAPGQGLEWMGWINPSSGETNYAQKFQGRVTMTRDTSISTAYMELSRLRSDDTAVYYCARDTGELDGMNWYFDLWGRGTLVTVSS
VL: EIVLTQSPATLSLSPGERATLSCRASQSVSSYLAWYQQKPGQAPRLLIYDASNRATGIPARFSGSGSGTDFTLTISSLEPEDFAVYYCQQSDSWPPTFGGGTKVEIKR
notes: Fully human IgG1 LAGA, kappa; HEK expressed
- IC50, FRET enzyme activity, 62.5 pM huBMP1 (Human BMP1-1): 0.05 nM
- IC50, FRET enzyme activity, 250 pM biotinylated huTLL-1 (Human TLL1): 0.07 nM
- Kd [1]: 3.7 nM
